{"source": "patent US20040001822A1", "about": "“Y1-isolated molecules comprising epitopes containing sulfated moieties, antibodies to such epitopes, and uses thereof” (priority 2000, published 2004)", "molecules": {"B1": {"name": "Y1 scFv: fully human scFv clone binding platelets and myelogenous leukemia cells, SEQ ID NO: 25 (protein, listed as Homo sapiens)", "scFv": "MKYLLPTAAAGLLLLAAQPAMAEVQLVESGGGVVRPGGSLRLSCAASGFTFDDYGMSWVRQAPGKGLEWVSGINWNGGSTGYADSVKGRFTISRDNAKNSLYLQMNSLRAEDTAVYYCARMRAPVIWGQGTLVTVSRGGGGSGGGGSGGGGSSELTQDPAVSVALGQTVRITCQGDSLRSYYASWYQQKPGQAPVLVIYGKNNRPSGIPDRFSGSSSGNTASLTITGAQAEDEADYYCNSRDSSGNHVVFGGGTKLTVLGAAAEQKLISEEDLNGAA"}}, "key": {"[1]": {"system": "platelet-rich-plasma (PRP)", "assay": "Ristocetin-induced aggregation of platelet-rich plasma after preincubation with scFv", "assay_type": "cell-based, human", "conditions": "scFv 25 μg/ml", "method": "The effect of Y1 (scfv) on aggregation of platelet-rich-plasma (PRP) was tested at various concentrations of Y1. PRP was pre-incubated with Y1 scfv, Y17 scfv, or a control sTM-1cFv for 4 min at 37° C. before being exposed to ristocetin, an inducer of platelet agglutination and aggregation. A reversible inhibitory effect was observed when scFv was added to PRP prior to the addition of ristocetin, and it was dose dependent.\nBlood was collected into a tube containing 3.8% sodium citrate. Platelet-rich plasma was prepared by centrifugation at 250×g for 10 minutes.\n(§1) For platelet aggregation studies, platelet rich plasma (PRP) and washed platelets were stirred at 500 rpm at 37° C. in whole blood Lumiaggregometer (Chronolog, Havertown,Pa.). The difference in light transmission through the platelet suspension and suspending medium was taken as 100% aggregation. The effect of Y1 on platelet aggregation was evaluated by addition of different concentration of Y1 before the addition of agonist, and the effect was recorded for four minutes."}, "washed platelets": {"system": "washed platelets", "assay": "Effect of Y1-IgG on agglutination of washed platelets with or without ristocetin", "assay_type": "cell-based, human", "conditions": "IgG 1 μg/ml", "source_text": "Due to its natural structure the full IgG Y1 has two binding sites on GPIbα and one binding site for an Fc receptor. It is likely that if full IgG Y1 binds two GPIbα molecules, it will activate platelets and induce platelet agglutination. Furthermore, because platelets have an Fc-receptor, Y1-IgG can induce platelet agglutination by binding to GPIbα and to an Fc-receptor, thereby producing platelet agglutination by each IgG Y1 binding to three platelets. Therefore, the effect of IgG Y1 on aggregation of washed platelets was tested at different concentrations of Y1-IgG in the presence or absence of ristocetin. Induction of platelet aggregation by Y1-IgG was monitored for 4 min at 37° C., followed by addition of ristocetin.\nThe results are presented in Table 6 and FIG. 17 without agonist. Y1-IgG alone at a final concentration of 50 μg/ml induced platelet agglutination ˜39% of normal agglutination of washed platelets. Induction of platelet agglutination by Y1-IgG was tested for 4 min at 37° C., followed by addition of ristocetin. […]\nas §1, with “The difference in light transmission through the platelet suspension and suspending medium was taken as 100% aggregation.” left out"}}}
{"molecule": "B1", "values": [{"measurement": "% aggregation", "setting": "[1]", "result": 87, "unit": "%"}, {"measurement": "% inhibition", "setting": "[1]; listed as Y1", "result": "no significant inhibition"}, {"measurement": "% agglutination Without ristocetin", "setting": "washed platelets", "result": "no induction"}]}
